Assay results: patent US20230192897A1 (NUMAB THERAPEUTICS, published 2023)

Columns and labels:
biotinylated human PDL1 [1] = target: T1, biotinylated human PDL1 (human, UniProt Q9NZQ7 19-238, limits assumed, biotinylated); test: competition ELISA PD-1/PDL1
T1 construct: also called biotinylated PDL1

biotinylated human PDL1 [2] = target: T1, biotinylated human PDL1; test: competition ELISA B7.1/PDL1
Summary of the method: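 IC₅₀ was derived by four-parameter logistic fitting of reference-subtracted A450/690 readings. The signal came from streptavidin-polyHRP40 (10 ng/ml) with a 6-minute TMB reaction detecting biotinylated PDL1 bound to the plate. Pre-mixed samples sat 1 h at RT before a 1.5 h plate incubation.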

human PDL1 on cells = human PDL1 on cells (human, UniProt Q9NZQ7 19-290); test: cell-based or functional assay
[3] = target: cynomolgus CD137-Fc chimeric protein (cynomolgus monkey, UniProt A9YYE7 24-186); test: SPR
Summary of the method: (§1)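 Kinetics were fitted with a one-to-one Langmuir model to give apparent ka, kd and KD. Binders at 0.12-90 nM (three-fold series) flowed 3 min, with 10 min dissociation and 3 M MgCl₂ regeneration, on a Biacore T200.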

Fc tagged human PDL1 = target: T2, Fc tagged human PDL1 (human, UniProt Q9NZQ7 19-239); test: SPR
T2 construct: Bought (Sino Biological, cat. 10084-H02H); captured on the SPR chip; also called PDL1-Fc chimeric protein
Summary of the method: as §1

Fc tagged human CD137 = target: T3, Fc tagged human CD137 (human, UniProt Q07011 24-186); test: SPR
T3 construct: also called CD137-Fc chimeric protein
Summary of the method: as §1

[4] = target: T4, mouse CD137-Fc chimeric protein (mouse, UniProt P20334 24-187, limits assumed); test: SPR
T4 sequence (looked up): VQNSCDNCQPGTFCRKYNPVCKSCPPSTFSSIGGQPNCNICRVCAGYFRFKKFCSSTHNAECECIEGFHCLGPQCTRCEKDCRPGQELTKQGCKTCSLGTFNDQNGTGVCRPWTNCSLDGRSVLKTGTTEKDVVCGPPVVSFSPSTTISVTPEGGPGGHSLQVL
Summary of the method: as §1

[5] = target: T5, CD137 on Jurkat NFkB reporter cells (human, UniProt Q07011 24-255); test: cell-based or functional assay
[6] = target: T5, CD137 on Jurkat NFkB reporter cells; test: cell-based or functional assay; remark: listed apart in the source
mouse serum albumin = target: T6, mouse serum albumin (mouse, UniProt P07724 25-608); test: SPR, SA coupled to chip, pH 5.5
T6 construct: Coupled directly to the CM5 chip; also called MSA; mouse SA
Method: (§2) Affinity of molecules to serum albumin (SA) of the different species was determined by SPR measurements using a Biacore T200 device (GE Healthcare). SA was directly coupled to a CM5 sensor chip (GE Healthcare) using amine coupling chemistry. […] The assay was run in a 1× PBS-Tween buffer at pH 5.5.

human serum albumin = target: T7, human serum albumin (human, UniProt P02768 25-609); test: SPR, SA coupled to chip, pH 5.5
T7 construct: Coupled directly to the CM5 chip; also called HSA; human SA
Method: as §2

B1: PRO951 (bispecific antibody)
chain: DIQMTQSPSSLSASVGDRVTITCQASQSINDYLAWYQQKPGKAPKLLIYKASTLASGVPSRFSGSGSGTDFTLTISSLQPEDFATYYCQQGYIITDIDNVFGTGTKVTVLGGGGGSEVQLVESGGGLVQPGGSLRLSCAASGFSFNNDYDMCWVRQAPGKGLEWIGCIDTGDGSTYYASWAKGRFTISRDNSKNTVYLQMNSLRAEDTAVYYCAREAASSSGYGMGYFDLWGQGTLVTVSSGGGGSGGGGSGGGGSGGGGSIQMTQSPSSLSASVGDRVTITCQSSQSVYDNNWLAWYQQKPGKAPKLLIYRASNLASGVPSRFSGSGSGTDFTLTISSLQPEDFATYYCQGTYLSSNWYWAFGTGTKVTVLGGGGGSQVQLQESGPGLVKPSETLSLTCKVSGFSFSSGYDMCWIRQPPGKGLEWIGCVVAGSVDITYYASWAKGRVTISVDSSKNQFSLKLSSVTAADTAVYYCARKDAYSDAFNLWGQGTLVTVSS
notes: scDb anti-PDL1 x CD137; also called 38-27-C05 sc02 scDb-i/33-03-G02 sc01 scDb-o
For B1, the IC50 (biotinylated human PDL1 [1]) was 0.0095 µg/mL, the “rel. IC50 (IC50 avelumab/IC50 test)” value (biotinylated human PDL1 [1]) was 0.15 fold and the IC50 (biotinylated human PDL1 [2]) was 0.0093 µg/mL. For the same binder, the “rel. IC50 (IC50 avelumab/IC50 test)” value (biotinylated human PDL1 [2]) was 0.78 fold, the “IC50 (ng/ml), NF-AT potency assay” value (human PDL1 on cells) was 88.5 ng/mL and the “rel. IC50 (avelumab/test)” value (human PDL1 on cells) was 0.47 fold. For the same binder, the Kd [3] was 6.9 nM, the koff [3] was 0.01 s⁻¹ and the kon [3] was 1.5e+06 M⁻¹ s⁻¹. For the same binder, the kon (Fc tagged human PDL1) was 2.2e+06 M⁻¹ s⁻¹, the Kd (Fc tagged human CD137) was 4.2 nM and the binding result [4] was “no binding”. The “EC50, NFkB reporter, CHO-PDL1” value [5] was 0.0337 µg/mL, the “IC50 (ng/ml), NFkB reporter, CHO-PD-L1” value [6] was 33.7 ng/mL and the “max. activation (%), NFkB reporter, CHO-PD-L1” value [6] was 432%. The “rel. IC50 (urelumab/test), NFkB reporter, CHO-PD-L1” value [6] was 2.35 fold.

B2: PRO1186 (other)
chain: DIQMTQSPSSLSASVGDRVTITCQASQSIGTYLAWYQQKPGKAPKLLIYRAFILASGVPSRFSGSGSGTDFTLTISSLQPEDFATYYCQSNFYSDSTTIGPNAFGTGTKVTVLGGGGGSQVQLQESGPGLVKPSETLSLTCKVSGFSFSNSYWICWIRQPPGKGLEWIGCTFVGSSDSTYYANWAKGRVTISVDSSKNQFSLKLSSVTAADTAVYYCARHPSDAVYGYANNLWGQGTLVTVSSGGGGSGGGGSGGGGSGGGGSDIQMTQSPSSLSASVGDRVTITCQASQSINNVLAWYQQKPGKAPKLLIYRASTLASGVPSRFSGSGSGTDFTLTISSLQPEDFATYYCQSSYGNYGDFGTGTKVTVLGGGGGSQVQLQESGPGLVKPSETLSLTCKVSGFSFNSDYWIYWIRQPPGKGLEWIGSIYGGSSGNTQYASWAQGRVTISVDSSKNQFSLKLSSVTAADTAVYYCARGYVDYGGATDLWGQGTLVTVSSGGGGSGGGGSVVMTQSPSSLSASVGDRVTITCQASQIISSRSAWYQQKPGQPPKLLIYQASKLASGVPSRFSGSGSGTDFTLTISSLQPEDFATYYCQCTYIDSNFGAFGGGTKLTVLGGGGGSGGGGSGGGGSGGGGSEVQLVESGGGLVQPGGSLRLSCAASGFSFSSSYWICWVRQAPGKGLEWVGCVFTGDGTTYYASWAKGRFTISRDNSKNTVYLQMNSLRAEDTATYFCARPVSVYYYGMDLWGQGTLVTVSS
notes: trispecific scDb-scFv; also called 38-02-A04 sc01 scDb-i/37-20-B03sc01 scDb-o/23-13-A01-sc03 scFv
B2 was tested, and the IC50 (biotinylated human PDL1 [1]) was 0.00174 µg/mL, the “rel. IC50 (IC50 avelumab/IC50 test)” value (biotinylated human PDL1 [1]) was 1.26 fold and the kon (mouse serum albumin) was 220000 M⁻¹ s⁻¹. For the same binder, the Kd (human serum albumin) was 2.9 nM, the koff (human serum albumin) was 0.00072 s⁻¹ and the kon (human serum albumin) was 250000 M⁻¹ s⁻¹. For the same binder, the IC50 (biotinylated human PDL1 [2]) was 0.00781 µg/mL, the “rel. IC50 (IC50 avelumab/IC50 test)” value (biotinylated human PDL1 [2]) was 1.58 fold and the “IC50 (ng/ml), NF-AT potency assay, +HSA” value (human PDL1 on cells) was 10.2 ng/mL. For the same binder, the “rel. IC50 (avelumab/test), +HSA” value (human PDL1 on cells) was 2.31 fold, the Kd (Fc tagged human PDL1) was 0.0037 nM and the koff (Fc tagged human PDL1) was 2.3e-05 s⁻¹. The kon (Fc tagged human PDL1) was 6.2e+06 M⁻¹ s⁻¹, the Kd (Fc tagged human CD137) was 2.6 nM and the koff (Fc tagged human CD137) was 0.0005 s⁻¹. The “IC50 (ng/ml), NFkB reporter, CHO-PD-L1, 24 h, +HSA” value [6] was 51 ng/mL, the “IC50 (ng/ml), NFkB reporter, HCC827 + IFNg, 24 h, +HSA” value [6] was 16.7 ng/mL and the “max. activation (%), NFkB reporter, CHO-PD-L1, 24 h, +HSA” value [6] was 152%. The “rel. IC50 (urelumab/test), NFkB reporter, CHO-PD-L1, 24 h, +HSA” value [6] was 0.97 fold and the “rel. IC50 (urelumab/test), NFkB reporter, HCC827 + IFNg, 24 h, +HSA” value [6] was 1.88 fold.
